Assay results from publication PMC9877181.

Test system: CCCC(=O)Oc1ccc([N+](=O)[O-])cc1
Assay: purified protein
Conditions: 50 mM Tris-HCl pH 8, 10 μM enzyme, no α-CD

EstG (Caulobacter vibrioides NA1000)
Km: 11.2 mM
